For test [1], the target named is Sec61α (canine (endogenous in MDCK)) (UniProt P38377). As to the kind of experiment: FRET or BRET. On the technique in general: Bioluminescence resonance energy transfer reports proximity on the nanometre scale.
Test [2] has as its target Sec61β (canine (endogenous in MDCK)) (UniProt P60467). As to the kind of experiment: FRET or BRET.

One may read the stoichiometry N as a count of units in the complex or per binding partner.

Sequence of Sec61β (canine (endogenous in MDCK)) (P60467 whole entry): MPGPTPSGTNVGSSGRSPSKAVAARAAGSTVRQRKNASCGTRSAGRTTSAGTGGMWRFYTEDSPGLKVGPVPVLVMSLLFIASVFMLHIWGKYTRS
Sequence of Sec61β (P60467 whole entry): as above
Sequence of Sec61α (canine (endogenous in MDCK)) (P38377 whole entry): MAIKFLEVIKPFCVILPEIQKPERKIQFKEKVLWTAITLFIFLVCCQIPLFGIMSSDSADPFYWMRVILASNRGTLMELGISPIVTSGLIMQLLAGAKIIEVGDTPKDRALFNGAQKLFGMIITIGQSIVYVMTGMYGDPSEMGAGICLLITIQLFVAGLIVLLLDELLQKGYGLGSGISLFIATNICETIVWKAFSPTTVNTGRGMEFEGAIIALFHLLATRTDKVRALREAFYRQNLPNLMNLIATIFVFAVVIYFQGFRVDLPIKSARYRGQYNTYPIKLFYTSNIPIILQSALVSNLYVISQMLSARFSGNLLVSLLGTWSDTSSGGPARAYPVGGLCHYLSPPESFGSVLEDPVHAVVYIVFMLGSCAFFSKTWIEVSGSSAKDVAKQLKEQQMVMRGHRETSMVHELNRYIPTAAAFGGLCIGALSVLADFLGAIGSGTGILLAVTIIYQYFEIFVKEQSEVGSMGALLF
Sequence of Sec61α (P38377 whole entry): as above

For “Sec61β (from UniProt P60467 1-96) (natural protein)”, in test [1], the FRET efficiency (pactamycin-treated cells) came to 46.8%, the FRET efficiency (puromycin-treated cells) stood at 46.1% and the FRET efficiency (untreated cells) stood at 41.8%. Further, in test [2], the FRET efficiency (pactamycin-treated cells) was 23.9%; the FRET efficiency (puromycin-treated cells) came out at 24.8%; the FRET efficiency (untreated cells) is 21.4%; the FRET efficiency (untreated cells, Fig. 3 A, donor to acceptor antibody 1:8) stood at 17%. Also, in test [2], the stoichiometry N was > 2.

In test [1], “Sec61α (from UniProt P38377 1-476) (natural protein)” yielded an FRET efficiency (pactamycin-treated cells) of 35.5%, an FRET efficiency (puromycin-treated cells) of 33.6% and an FRET efficiency (untreated cells) of 38.3%. In test [2], this substance returned an FRET efficiency (pactamycin-treated cells) of 28%; an FRET efficiency (puromycin-treated cells) of 27.9%; an FRET efficiency (untreated cells) of 26.4%; an FRET efficiency (untreated cells, Fig. 3 B) of 30%.

Source of the values: PMC2172055.
